The supplement of paper PMC9170038

Test system: MS2 coat protein
Assay: apparent KD of MS2 coat protein; designed switch direction (-1 OFF switch, 1 ON switch): -1; higher = weaker reporter binding
Summary of the method: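 Normalised cluster fluorescence was curve-fitted, and each design's median over clusters is its apparent KD. Before this, SNAP-549-labelled MS2 coat protein was titrated from 0.7 or 1.5 nM, doubling to 3 µM, over RNA switches transcribed on Illumina chips by stalled E. coli RNA polymerase. Titrations had no input, 200 uM small-molecule ligand, or an oligonucleotide input, and steps lasted 0.8–1.5 h (lowest) to 10–20 min (highest).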

[1] = Eterna round: R95, input ligand: FMN 200 uM
[2] = Eterna round: R95, input ligand: microRNA oligo, concentration not stated
[3] = Eterna round: R95, input ligand: none
[4] = input ligand: microRNA oligo, concentration not stated

## GAUUAUGCGAGCUUUAGGGACAUGAGGAUCACCCAUGUUCGUCUUAUUGAUCUGGAUGCGCUAACAUACCUAAAUCU [JMF 45] (puzzle: Sensor v3, turn-off variant 1)
[1]
  apparent KD of MS2 coat protein: 0.065 µM
[2]
  apparent KD of MS2 coat protein: 0.0711 µM
[3]
  apparent KD of MS2 coat protein: 0.0629 µM

## CUGGUCCGAGGAUAUAUUAUGUGAUACAUGAGGAUCACCCAUGUUAUAUGAUGGAUGUUAGUAGAAGGCGGACUAG [JL-ex5-3.21] (puzzle: Exclusion 5)
[1]
  apparent KD of MS2 coat protein: 0.102 µM
[2]
  apparent KD of MS2 coat protein: 0.0573 µM
[3]
  apparent KD of MS2 coat protein: 0.0599 µM

## GUCAGCUCGUGAGGAUAUACAUGAUAGAUCGAUUAAUUAAUUAAUUUAACAUGAGGAUCACCCAUGUAGAAGGUACGAGCUGAU [ENG2/1-C2] (Eterna round: R96, puzzle: Exclusion NG 2)
[4]
  apparent KD of MS2 coat protein: 0.0401 µM

## AGUAGUAGUAUCCGAUCCUACAUGAGGAUCACCCAUGUAGCUAGACGUGCACGCGAUGCUCGUCGGACUACCAGAUG [salish99_TOv1_r3_043] (puzzle: Sensor v3, turn-off variant 1)
[1]
  apparent KD of MS2 coat protein: 0.048 µM
[2]
  apparent KD of MS2 coat protein: 0.0469 µM
[3]
  apparent KD of MS2 coat protein: 0.0634 µM

## GCACUGCGAGGAUAUACAUGAGGAUCACCCAUGUGUCGGCAGCCAUGUUAUUUCUAAUGUAGAAGGCGCGUAAA [JR_Ex3_Sub001] (Eterna round: R97, puzzle: Exclusion 3)
Input ligand: FMN 200 uM
  apparent KD of MS2 coat protein: 0.125 µM
Input ligand: none
  apparent KD of MS2 coat protein: 0.033 µM

## UGCAUGUAAGGAUAUGCAUCCGCCGACGUCCCGGCGGCACAGCAGAAGGUACAUGAGGAUCACCCAUGUGUCCC [Qusousar] (Eterna round: R96, puzzle: Exclusion 4)
Input ligand: FMN 200 uM
  apparent KD of MS2 coat protein: 0.449 µM
[4]
  apparent KD of MS2 coat protein: 0.024 µM
Input ligand: none
  apparent KD of MS2 coat protein: 0.031 µM

## CGCGUAUGAGGAUAUGCAUAAAAGGGUGCACUGAGUCUGAGACAUGAGGAUCACCCAUGUAGAAGGCGUGCGCU [Beerteon] (puzzle: Exclusion 2)
[2]
  apparent KD of MS2 coat protein: 0.0136 µM

## UGACUUCAUAUCACAUGAGGAUCACCCAUGUUAUUCAUCUCGUAGGAUAUCGAGGUUUAUUAUUUCGAGAAGGACGUAUUGUUU [JR_ExcNG3_Sub075] (Eterna round: R96, puzzle: Exclusion NG 3)
Input ligand: FMN 200 uM
  apparent KD of MS2 coat protein: 0.0686 µM
[4]
  apparent KD of MS2 coat protein: 0.0443 µM
Input ligand: none
  apparent KD of MS2 coat protein: 0.0455 µM

## AAUCCUAGAGGAUAUACAUGUGAACUACUGUACAUCCCUGUACAUGAGGAUCACCCAUGUAGAAGGCUGACGGA [Eternabot (L2) Solution 97] (Eterna round: R97, puzzle: Exclusion 2)
Input ligand: FMN 200 uM
  apparent KD of MS2 coat protein: 0.244 µM
Input ligand: none
  apparent KD of MS2 coat protein: 0.197 µM

## GUCAGCUCGUGAGGAUAUACAUCACUGCUUCGGCAGUGUAUUAAGAUCACAUGAGGAUCACCCAUGUAGAAGGUACGAGCUGAC [ENG2/2-C1] (Eterna round: R96, puzzle: Exclusion NG 2)
Input ligand: FMN 200 uM
  apparent KD of MS2 coat protein: 0.18 µM
[4]
  apparent KD of MS2 coat protein: 0.0215 µM
Input ligand: none
  apparent KD of MS2 coat protein: 0.0221 µM

## GGAUAAAACUGAGGAUAUGCGUAUAGAUAGAGAGCAGAAGGCAGACAUGAGGAUCACCCAUGUGAGUUCUCGAUAAGAAACACG [Prohibition 58 - Jieux - Exclusion NG 1] (Eterna round: R96, puzzle: Exclusion NG 1)
Input ligand: FMN 200 uM
  apparent KD of MS2 coat protein: 0.118 µM
[4]
  apparent KD of MS2 coat protein: 0.0361 µM
Input ligand: none
  apparent KD of MS2 coat protein: 0.0352 µM

## GGUGUGCUAGGAUAUGCUUUGGGCUCGCUUUCCUUCGUUUUACUUGAGGAUCACCCAAGUAGAAGGAGCUUGCC [salish99_ex2_r4_037] (Eterna round: R97, puzzle: Exclusion 2)
Input ligand: FMN 200 uM
  apparent KD of MS2 coat protein: 0.0133 µM
Input ligand: none
  apparent KD of MS2 coat protein: 0.0116 µM

## UUAGCGUAAGUAAGGAUAUGCUGGUCGAAAGACCAGCAGAAGGUACAUGAGGAUCACCCAUGUUGAUUCGUUGC [Mod of JL 13 - Jieux - Brourd's mod of Exclusion 4] (Eterna round: R97, puzzle: Brourd's mod of Exclusion 4)
Input ligand: FMN 200 uM
  apparent KD of MS2 coat protein: 0.284 µM
Input ligand: none
  apparent KD of MS2 coat protein: 0.0397 µM

## CAGGAUAGAGGAUAUACAUAGAUACAGAUUCAUGUGAUCCUACAUGAGGAUCACCCAUGUAGAAGGCUAUCCUG [Fiskers Ex 2 - 21] (Eterna round: R96, puzzle: Exclusion 2)
Input ligand: FMN 200 uM
  apparent KD of MS2 coat protein: 0.216 µM
[4]
  apparent KD of MS2 coat protein: 0.321 µM
Input ligand: none
  apparent KD of MS2 coat protein: 0.348 µM

## UCUGGUCAAGGAUAUACAAUCGUGCUUCGGCACGUAAGAUCACAUGAGGAUCACCCAUGUAGAAGGUGACCAGA [E2/1-C3] (Eterna round: R97, puzzle: Exclusion 2)
Input ligand: FMN 200 uM
  apparent KD of MS2 coat protein: 0.449 µM
Input ligand: none
  apparent KD of MS2 coat protein: 0.0439 µM

## UUUUAUAGAGGAUAUGCGUGAAUAUAUAUUCAUGGAAAUUUACAUGAGGAUCACCCAUGUAGAAGGUUGUGUUU [LRO-Excl2-20-mod 090 by JR] (Eterna round: R97, puzzle: Exclusion 2)
Input ligand: FMN 200 uM
  apparent KD of MS2 coat protein: 0.0133 µM
Input ligand: none
  apparent KD of MS2 coat protein: 0.0119 µM

## AAGAAACAUGAGGAUCACCCAUGUGAGGAUAUGAAAAAUAAAAUAAAAUAAAUAAUAAUCAGAAGGCACAAAGG [Mat - Mod of Hog D7] (puzzle: Exclusion 1)
[1]
  apparent KD of MS2 coat protein: 0.0373 µM
[2]
  apparent KD of MS2 coat protein: 0.0341 µM
[3]
  apparent KD of MS2 coat protein: 0.042 µM

## CAGAAUUGAGGAUAUGAUCAAUUUAACAUGAGGAUCACCCAUGUAUGGGAAUGAUUCUGAUCAGAAGGCGAUUCUU [Exclusion 5: 1:a] (puzzle: Exclusion 5)
[1]
  apparent KD of MS2 coat protein: 0.257 µM
[2]
  apparent KD of MS2 coat protein: 0.285 µM
[3]
  apparent KD of MS2 coat protein: 0.461 µM

## ACUGUGUAAGGAUAUGUGAUACACUGCUAUUUAGGUGAGUCACAGAAGGUACAUGAGGAUCACCCAUGUCCGGG [Eternabot (L2) Solution 32] (Eterna round: R97, puzzle: Exclusion 4)
Input ligand: FMN 200 uM
  apparent KD of MS2 coat protein: 0.222 µM
Input ligand: none
  apparent KD of MS2 coat protein: 0.172 µM

## AGUGCUAACACGUUGGUGUUAGUACCAUAAGCUUGUGAUACAUGAGGAUCACCCAUGUCCUCAUAAGCUCGUCUUAU [salish99_TOv2_r2_098] (puzzle: Sensor v3, turn-off variant 2)
[1]
  apparent KD of MS2 coat protein: 0.0306 µM
[2]
  apparent KD of MS2 coat protein: 0.508 µM
[3]
  apparent KD of MS2 coat protein: 0.0294 µM

## GUGUAGAUAGGAUAUGCAAGAGUCUAGCGAAGCUAGAUUCUACAUGAGGAUCACCCAUGUAGAAGGGUCUACAC [Fiskers Ex 2 - 29] (puzzle: Exclusion 2)
[2]
  apparent KD of MS2 coat protein: 0.0173 µM

## UAAAGCUUUGAGAUCCUUAACAUGAGGAUCACCCAUGUUCGUCUUAUGAUGGUCUGAUCCCUGAGGAUCGGACCGUU [Mat - Sensor v3 - turn-off var 1 - JL Mod - D5] (puzzle: Sensor v3, turn-off variant 1)
[1]
  apparent KD of MS2 coat protein: 0.269 µM
[2]
  apparent KD of MS2 coat protein: 0.0266 µM
[3]
  apparent KD of MS2 coat protein: 0.252 µM

## AAAAGGUCAGGAUAUCCAAGAAAAGAAAAGAAAAGAAAAGAGGAGAAGGGACAUGAGGAUCACCCAUGUAAAAG [Default title] (puzzle: Exclusion 4)
[1]
  apparent KD of MS2 coat protein: 0.039 µM
[2]
  apparent KD of MS2 coat protein: 0.0427 µM
[3]
  apparent KD of MS2 coat protein: 0.038 µM

## AGUACUAUCACGAAAGUGAUAGUACAAUAAGCAAGUGAAACAUGAGGAUCACCCAUGUCCUCAUUUGCUCGUCUUAU [salish99_TOv2_r3_200again] (puzzle: Sensor v3, turn-off variant 2)
[1]
  apparent KD of MS2 coat protein: 0.0178 µM
[2]
  apparent KD of MS2 coat protein: 0.749 µM
[3]
  apparent KD of MS2 coat protein: 0.017 µM

## AGAUGUAGAUACCGGUCCUACAUGAGGAUCACCCAUGUAGCUUGACGUGCGGGCGGCGCUCGUCGGUCUACCAGUAG [salish99_TOv1_r3_100] (puzzle: Sensor v3, turn-off variant 1)
[1]
  apparent KD of MS2 coat protein: 0.0273 µM
[2]
  apparent KD of MS2 coat protein: 0.0286 µM
[3]
  apparent KD of MS2 coat protein: 0.0362 µM

## AACUAGGCAGGAUAUACAUGAGGAUCACCCAUGUAAAUUUUUCGUUUAACUUGAAUGUGUAGAAGGGCCAUAAA [Ex3 #52] (Eterna round: R97, puzzle: Exclusion 3)
Input ligand: FMN 200 uM
  apparent KD of MS2 coat protein: 0.0233 µM
Input ligand: none
  apparent KD of MS2 coat protein: 0.0246 µM

## GAGGCAUGCCUAGGUCCACACAUGAGGAUCACCCAUGUAAUGACAGGCUUUUUACUCGUUUUAUCGCUAUCGCGUUC [Enaor] (puzzle: Sensor v3, turn-off variant 1)
[1]
  apparent KD of MS2 coat protein: 0.0132 µM
[2]
  apparent KD of MS2 coat protein: 0.0207 µM
[3]
  apparent KD of MS2 coat protein: 0.0118 µM

## AAUAACAGAGGAUAUACUAUUUUAUGUGUUUGUUAUUUUGAACAUGAGGAUCACCCAUGUAGAAGGCUGAGUAA [JMF 36] (puzzle: Exclusion 2)
[2]
  apparent KD of MS2 coat protein: 0.0268 µM

## UGUUCGUCAGGAUAUUCUACUUAUUACAUGAGGAUCACCCAUGUGUAUGUACAAGGGUGUGAAGAAGGGACUUGUC [LRO-Excl5-07-mod A17d by Omei] (Eterna round: R97, puzzle: Exclusion 5)
Input ligand: FMN 200 uM
  apparent KD of MS2 coat protein: 0.331 µM
Input ligand: none
  apparent KD of MS2 coat protein: 1.24 µM

## AGGGAGCGAGGAUAUACAGAGUAGGAAACUACUCCCUCAGUACAUGAGGAUCACCCAUGUAGAAGGCGCCCGAA [EX2 A.1] (Eterna round: R97, puzzle: Exclusion 2)
Input ligand: FMN 200 uM
  apparent KD of MS2 coat protein: 0.038 µM
Input ligand: none
  apparent KD of MS2 coat protein: 0.0238 µM

## CGAUAAAGGUGAGGAUAUGAGAAUAGAAAGAAAUCAGAAGGCACACAUGAGGAUCACCCAUGUGAGUUCUUGAGAUUACAUGGU [Prohibition 44 - Jieux - Exclusion NG 1] (Eterna round: R96, puzzle: Exclusion NG 1)
[4]
  apparent KD of MS2 coat protein: 0.011 µM

## CCUAGUUGGUAAGGAUAUCCUACACUAUUCUGACCCGUGCAAGCUACAUGAGGAUCACCCAUGUGGGAGAAGGUGCGUCAACGC [Design 11] (Eterna round: R96, puzzle: Exclusion NG 2)
Input ligand: FMN 200 uM
  apparent KD of MS2 coat protein: 0.0291 µM
[4]
  apparent KD of MS2 coat protein: 0.0197 µM
Input ligand: none
  apparent KD of MS2 coat protein: 0.0329 µM

## CUUGUGUCAGGAUAUGCUAAGUAUUCGUUUUACGCGUCUAGGCAGAAGGGACAUGAGGAUCACCCAUGUAACGC [EX4 B.30] (Eterna round: R97, puzzle: Exclusion 4)
Input ligand: FMN 200 uM
  apparent KD of MS2 coat protein: 0.172 µM
Input ligand: none
  apparent KD of MS2 coat protein: 0.133 µM
